{"source": "paper PMC6004577", "about": "(Molecular Biology of the Cell, 2018)", "proteins": {"B1": {"name": "α-mDelNT, N-terminal half of mouse α-Delphilin (aa 1-558) (domain or fragment, UniProt Q0QWG9-2 1-558, looked up)", "chain": "MSCLGIFIPKKHRARFDEVVSQGLLGKLCRARRAQGAQRLRRSRSEERPERLLVSTRASAAPRRPDEPPPRKATSLLGGRTGPGGPRRTVRVYKGNKSFGFTLRGHGPVWIESVLPGSPAENASLKSGDRILFLNGLDMRNCSHDKVVSMLQGSGAMPTLVVEEGPVPFASDSDSLDSPTRASALTSLQWVADILPSSIRVQGRTFSQQLDHLLTPPERYGVCRALERFFQHRNIDTLIVDVYPVLDTPAKQVLWQFLYQLLTYEEQELCQEKIACFLGYTAMTEPESSLDLEPESTPEPTPEPQPRSSLRASSMCRRSLRSQGLETSLSCGPGDCPEMPLPLIPGERQAGDGTSLPETPNPKMMSAVYAELESRLNSSFKGKIGTMSKSRASPPVPSLVGTSGPRTLSGVSWPSDRLLPSPCYDPLCSGGLASPSSSESHPYASLDSSRAPSPQPGLGSIHADSPPSPDPIRPPSRRKLFAFSRPVRSRDTDRFLDALSEQLGPRLSIVDDFLTPENDYEEMSFHDDQGSFVTNERSSASECVSSSEEGSSLTYSSI"}}, "key": {"SEC": {"biological_target": "the molecule itself", "test": "SEC"}, "AUC": {"biological_target": "the molecule itself", "test": "AUC"}}}
{"protein": "B1", "values": [{"measurement": "stoichiometry N", "setting": "SEC", "value": "7 ± 1", "unit": "subunits"}, {"measurement": "stoichiometry N", "setting": "AUC", "value": 6}]}
